In patent US20150344570A1 (published 2015):

T1: FcγRIIb extracellular domain with C-terminal His tag (human, UniProt P31994 43-217)
T1 construct: extracellular domain; also called FcgRIIb; 2b; not shown: His tag at the C terminus
T1 sequence (looked up): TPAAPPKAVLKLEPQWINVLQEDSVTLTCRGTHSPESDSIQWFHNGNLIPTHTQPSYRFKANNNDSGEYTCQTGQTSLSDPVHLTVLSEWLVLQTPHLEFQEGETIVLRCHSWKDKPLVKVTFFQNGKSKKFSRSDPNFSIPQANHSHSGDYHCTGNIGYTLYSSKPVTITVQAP


Tests used:
FcγRIa = biological target: T2, FcγRIa (human, UniProt P12314 16-292); assay: SPR (Biacore), relative binding; control HoCon Ab GpH7-B3/GpL16-k0
T2 construct: extracellular domain; also called FcgRI; FcgRIa; not shown: His tag attached to the C terminus

[1] = biological target: T3, FcγRIIIa extracellular domain with C-terminal His tag (human, UniProt P08637 17-208); assay: SPR (Biacore); He/Con_3a divided by He/Con_2b (FcγRIIb)
T3 construct: extracellular domain; also called FcgRIIIa; 3a; not shown: His tag at the C terminus

[2] = biological target: T3, FcγRIIIa extracellular domain with …; assay: SPR (Biacore), FcγR as analyte over captured antibody; GpH7-A5/GpH7-B3/GpL16-k0 = 100
[3] = biological target: T1, FcγRIIb extracellular domain with …; assay: as above

T3 sequence (P08637 17-208): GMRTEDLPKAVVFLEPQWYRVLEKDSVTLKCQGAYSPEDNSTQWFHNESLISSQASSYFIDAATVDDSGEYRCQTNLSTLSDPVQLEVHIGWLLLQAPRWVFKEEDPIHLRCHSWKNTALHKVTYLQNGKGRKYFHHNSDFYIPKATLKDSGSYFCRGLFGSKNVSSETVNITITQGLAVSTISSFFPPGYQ
T2 sequence (P12314 16-292): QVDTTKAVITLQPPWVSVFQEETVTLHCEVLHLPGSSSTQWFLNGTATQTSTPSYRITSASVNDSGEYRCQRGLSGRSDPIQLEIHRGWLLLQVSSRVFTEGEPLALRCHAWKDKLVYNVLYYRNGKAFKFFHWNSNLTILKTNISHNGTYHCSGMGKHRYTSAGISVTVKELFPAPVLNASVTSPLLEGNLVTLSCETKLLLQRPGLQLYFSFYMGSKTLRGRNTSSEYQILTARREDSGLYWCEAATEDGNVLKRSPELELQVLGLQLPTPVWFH

| Ho/Con_1a (FcγRIa) | He_3a/2b (IIIa/IIb) [1] | He/Con_3a [2] | He/Con_2b [3] | Binder |
| --- | --- | --- | --- | --- |
| 106 % of control (=100) |  |  |  | GpH7-B3 variant K326_09D/GpL16-k0 (antibody, human IgG1, kappa, Alteration in both H chains; also called Ho Ab K326_09D) heavy: not shown light: DIVMTQSPLSLPVTPGEPASISCQASESLVHSNRNTYLHWYLQKPGQSPQLLIYKVSNRFSGVPDRFSGSGSGTDFTLKISRVEAEDVGVYYCSQNTHVPPTFGQGTKVEIERTVAAPSVFIFPPSDEQLKSGTASVVCLLNNFYPREAKVQWKVDNALQSGNSQESVTEQDSKDSTYSLSSTLTLSKADYEKHKVYACEVTHQGLSSPVTKSFNRGEC |
|  | 0.68 ratio | 73.5 % of control | 108 % of control | GpH7-A5/GpH7-B3 variant S298_08L/GpL16-k0 (antibody, human IgG1, kappa, Heterodimerized IgG1 antibody; alteration in the GpH7-B3 chain only; also called He Ab) heavy 1: not shown heavy 2: not shown light: DIVMTQSPLSLPVTPGEPASISCQASESLVHSNRNTYLHWYLQKPGQSPQLLIYKVSNRFSGVPDRFSGSGSGTDFTLKISRVEAEDVGVYYCSQNTHVPPTFGQGTKVEIERTVAAPSVFIFPPSDEQLKSGTASVVCLLNNFYPREAKVQWKVDNALQSGNSQESVTEQDSKDSTYSLSSTLTLSKADYEKHKVYACEVTHQGLSSPVTKSFNRGEC |
|  | 0.73 ratio | 64.5 % of control | 88.2 % of control | GpH7-A5/GpH7-B3 variant Y296_14T/GpL16-k0 (antibody, human IgG1, kappa, Heterodimerized IgG1 antibody; alteration in the GpH7-B3 chain only; also called He Ab) heavy 1: not shown heavy 2: not shown light: DIVMTQSPLSLPVTPGEPASISCQASESLVHSNRNTYLHWYLQKPGQSPQLLIYKVSNRFSGVPDRFSGSGSGTDFTLKISRVEAEDVGVYYCSQNTHVPPTFGQGTKVEIERTVAAPSVFIFPPSDEQLKSGTASVVCLLNNFYPREAKVQWKVDNALQSGNSQESVTEQDSKDSTYSLSSTLTLSKADYEKHKVYACEVTHQGLSSPVTKSFNRGEC |
| 114 % of control (=100) |  |  |  | GpH7-B3 variant I336_16H/GpL16-k0 (antibody, human IgG1, kappa, Alteration in both H chains; also called Ho Ab I336_16H) heavy: not shown light: DIVMTQSPLSLPVTPGEPASISCQASESLVHSNRNTYLHWYLQKPGQSPQLLIYKVSNRFSGVPDRFSGSGSGTDFTLKISRVEAEDVGVYYCSQNTHVPPTFGQGTKVEIERTVAAPSVFIFPPSDEQLKSGTASVVCLLNNFYPREAKVQWKVDNALQSGNSQESVTEQDSKDSTYSLSSTLTLSKADYEKHKVYACEVTHQGLSSPVTKSFNRGEC |
| 103 % of control (=100) |  |  |  | GpH7-B3 variant K326_03V/GpL16-k0 (antibody, human IgG1, kappa, Alteration in both H chains; also called Ho Ab K326_03V) heavy: not shown light: DIVMTQSPLSLPVTPGEPASISCQASESLVHSNRNTYLHWYLQKPGQSPQLLIYKVSNRFSGVPDRFSGSGSGTDFTLKISRVEAEDVGVYYCSQNTHVPPTFGQGTKVEIERTVAAPSVFIFPPSDEQLKSGTASVVCLLNNFYPREAKVQWKVDNALQSGNSQESVTEQDSKDSTYSLSSTLTLSKADYEKHKVYACEVTHQGLSSPVTKSFNRGEC |
|  | 0.69 ratio | 65.5 % of control | 94.7 % of control | GpH7-A5/GpH7-B3 variant S324_05P/GpL16-k0 (antibody, human IgG1, kappa, Heterodimerized IgG1 antibody; alteration in the GpH7-B3 chain only; also called He Ab) heavy 1: not shown heavy 2: not shown light: DIVMTQSPLSLPVTPGEPASISCQASESLVHSNRNTYLHWYLQKPGQSPQLLIYKVSNRFSGVPDRFSGSGSGTDFTLKISRVEAEDVGVYYCSQNTHVPPTFGQGTKVEIERTVAAPSVFIFPPSDEQLKSGTASVVCLLNNFYPREAKVQWKVDNALQSGNSQESVTEQDSKDSTYSLSSTLTLSKADYEKHKVYACEVTHQGLSSPVTKSFNRGEC |
|  | 0.8 ratio | 73.4 % of control | 92.2 % of control | GpH7-A5/GpH7-B3 variant Y296_16H/GpL16-k0 (antibody, human IgG1, kappa, Heterodimerized IgG1 antibody; alteration in the GpH7-B3 chain only; also called He Ab) heavy 1: not shown heavy 2: not shown light: DIVMTQSPLSLPVTPGEPASISCQASESLVHSNRNTYLHWYLQKPGQSPQLLIYKVSNRFSGVPDRFSGSGSGTDFTLKISRVEAEDVGVYYCSQNTHVPPTFGQGTKVEIERTVAAPSVFIFPPSDEQLKSGTASVVCLLNNFYPREAKVQWKVDNALQSGNSQESVTEQDSKDSTYSLSSTLTLSKADYEKHKVYACEVTHQGLSSPVTKSFNRGEC |
|  | 0.78 ratio | 56.7 % of control | 72.8 % of control | GpH7-A5/GpH7-B3 variant Y296_11K/GpL16-k0 (antibody, human IgG1, kappa, Heterodimerized IgG1 antibody; alteration in the GpH7-B3 chain only; also called He Ab) heavy 1: not shown heavy 2: not shown light: DIVMTQSPLSLPVTPGEPASISCQASESLVHSNRNTYLHWYLQKPGQSPQLLIYKVSNRFSGVPDRFSGSGSGTDFTLKISRVEAEDVGVYYCSQNTHVPPTFGQGTKVEIERTVAAPSVFIFPPSDEQLKSGTASVVCLLNNFYPREAKVQWKVDNALQSGNSQESVTEQDSKDSTYSLSSTLTLSKADYEKHKVYACEVTHQGLSSPVTKSFNRGEC |
|  | 0.72 ratio | 61.8 % of control | 86.3 % of control | GpH7-A5/GpH7-B3 variant Y296_13S/GpL16-k0 (antibody, human IgG1, kappa, Heterodimerized IgG1 antibody; alteration in the GpH7-B3 chain only; also called He Ab) heavy 1: not shown heavy 2: not shown light: DIVMTQSPLSLPVTPGEPASISCQASESLVHSNRNTYLHWYLQKPGQSPQLLIYKVSNRFSGVPDRFSGSGSGTDFTLKISRVEAEDVGVYYCSQNTHVPPTFGQGTKVEIERTVAAPSVFIFPPSDEQLKSGTASVVCLLNNFYPREAKVQWKVDNALQSGNSQESVTEQDSKDSTYSLSSTLTLSKADYEKHKVYACEVTHQGLSSPVTKSFNRGEC |
|  | 0.79 ratio | 72.1 % of control | 91.5 % of control | GpH7-A5/GpH7-B3 variant Y296_18N/GpL16-k0 (antibody, human IgG1, kappa, Heterodimerized IgG1 antibody; alteration in the GpH7-B3 chain only; also called He Ab) heavy 1: not shown heavy 2: not shown light: DIVMTQSPLSLPVTPGEPASISCQASESLVHSNRNTYLHWYLQKPGQSPQLLIYKVSNRFSGVPDRFSGSGSGTDFTLKISRVEAEDVGVYYCSQNTHVPPTFGQGTKVEIERTVAAPSVFIFPPSDEQLKSGTASVVCLLNNFYPREAKVQWKVDNALQSGNSQESVTEQDSKDSTYSLSSTLTLSKADYEKHKVYACEVTHQGLSSPVTKSFNRGEC |
